The target of experiment [1] is T1, hNav1.7-loopA3-llama Fc fusion (human).
T1 construct: also called hNav1.7-loopA3-llFc; loopA3-llamaFc chimera
T1 chain: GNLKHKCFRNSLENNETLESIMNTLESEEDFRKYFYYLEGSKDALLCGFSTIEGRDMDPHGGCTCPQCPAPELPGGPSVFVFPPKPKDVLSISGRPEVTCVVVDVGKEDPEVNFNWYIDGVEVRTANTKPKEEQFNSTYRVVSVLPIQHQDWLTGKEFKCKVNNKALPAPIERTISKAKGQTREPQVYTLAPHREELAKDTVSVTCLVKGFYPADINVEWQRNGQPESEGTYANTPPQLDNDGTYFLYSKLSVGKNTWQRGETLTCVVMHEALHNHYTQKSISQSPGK
Kind of experiment: ELISA, coated loopA3-llama Fc 10 ng/well, mAb titrated. The procedure: In a next experiment, the binding affinity of the loop-specific mAbs was determined and compared to reference mAbs as described in US2011/0135662 (for loop A3: UCB_932, for loopB1-C1-D1: UCB_983, for loopC3: UCB_1066; US2011/0135662). Affinities were determined using an ELISA with a loop-coating of 10 ng/well (loopA3-llama Fc), 20 ng/well (loop-B1-C1-D1-llama Fc) or 50 ng/well (loopC3-llama Fc). The remainder of the experimental setup was identical to abovementioned binding ELISAs. Most of the mAbs show pM affinity for the respective hNav1.7 extracellular loop they are binding. […] The EC₅₀ for the reference mAbs could not be determined (nd) from the ELISA data available because the binding was too weak.

Experiment [2] concerns the target T2, ratA3-llFc (rat).
T2 construct: also called rat Nav1.7 loopA3 llamaFc chimera
T2 chain: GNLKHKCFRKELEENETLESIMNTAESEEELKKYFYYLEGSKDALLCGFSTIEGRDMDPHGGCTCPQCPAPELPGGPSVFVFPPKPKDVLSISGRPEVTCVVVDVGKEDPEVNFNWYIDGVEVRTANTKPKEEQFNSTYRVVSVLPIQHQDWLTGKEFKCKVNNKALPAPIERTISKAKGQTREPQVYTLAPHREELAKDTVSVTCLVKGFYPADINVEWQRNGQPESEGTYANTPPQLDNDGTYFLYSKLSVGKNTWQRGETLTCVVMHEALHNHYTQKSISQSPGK
The experiment in a line: binding ELISA on coated rat Nav1.7 loop A3-llama Fc, OD620.

Experiment [3] addresses T3, hNav1.7-loopB1-C1-D1-llama Fc (human).
T3 construct: whole entry: loops B1, C1, D1 joined by linkers, llama Fc; also called hNav1.7-loopB1-C1-D1-llfc
T3 chain: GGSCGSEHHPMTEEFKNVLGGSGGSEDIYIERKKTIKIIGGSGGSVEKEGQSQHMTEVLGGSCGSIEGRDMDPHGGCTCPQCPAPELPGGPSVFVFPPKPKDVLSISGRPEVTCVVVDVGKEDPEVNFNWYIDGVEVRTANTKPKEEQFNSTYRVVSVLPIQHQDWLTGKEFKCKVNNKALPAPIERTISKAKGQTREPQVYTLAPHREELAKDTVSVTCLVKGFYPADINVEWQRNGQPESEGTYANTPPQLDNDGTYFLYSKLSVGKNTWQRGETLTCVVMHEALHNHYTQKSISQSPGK
Kind of experiment: binding ELISA on coated loop-llama Fc chimera (20 ng/well), OD620. The procedure: For all DNA-immunization derived mAbs the binding affinity for the various hNav1.7-loop-llama Fc chimeras was tested in a binding ELISA. Therefore, a Maxisorp plate (Nunc) was coated with 20 ng/well of hNav1.7-loopA3-llama Fc, hNav1.7-loopB1-C1-D1-llama Fc or hNav1.7-loopC3-llama Fc. Remainder of the ELISA setup is as described above. […] Only at very high concentration minor cross-reactivity is observed for some clones.

Experiment [4] deals with T4, hNav1.5-loopA3-llFc (human).
T4 construct: also called Nav1.5 extracellular loop A3 llamaFc chimera
T4 chain: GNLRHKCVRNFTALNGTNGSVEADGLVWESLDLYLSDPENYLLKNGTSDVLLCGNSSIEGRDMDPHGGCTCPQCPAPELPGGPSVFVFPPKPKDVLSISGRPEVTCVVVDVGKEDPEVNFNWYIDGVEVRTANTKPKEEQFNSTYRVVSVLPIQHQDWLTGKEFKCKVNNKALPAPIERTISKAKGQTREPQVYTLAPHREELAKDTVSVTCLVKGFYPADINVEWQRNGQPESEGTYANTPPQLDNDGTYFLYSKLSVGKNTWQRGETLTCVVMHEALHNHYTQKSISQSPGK
The experiment in a line: binding ELISA on coated hNav1.5 loop A3-llama Fc, OD620. The text has this: (§1) The therapeutic potency of an anti-hNav1.7 antibody will highly depend on the lack of binding to other Nay family members. Of particular interest is hNav1.5, which is expressed on cardiac muscle cells. As such, cross-reactive binding of hNav1.7 antibodies to hNav1.5 could lead to heart failure. To assay the specificity of the mAbs derived from DNA immunization for hNav1.7, the corresponding loopA3 and loopB1-C1-D1 sequences of hNav1.5 were cloned as llamaFc chimera and cross-reactivity was determined using a binding ELISA (FIG. 8). All clones, except clone 9A6 and 9H4, show no cross-reactivity to hNav1.5. In addition, cross reactivity for hNav1.2 was tested for the loopA3-binding clones 8A7 and 8B6 using hNav1.2 and hNav1.7 derived monomeric, GST-tagged loopA3 peptides (Abnova, H00006326-Q01 (hNav1.2) and H00006335-Q01 (hNav1.7)). Again, no cross-reactive binding was observed.

Experiment [5] deals with T5, GST-tagged hNav1.2-loopA3 (human, UniProt Q99250 273-362).
T5 construct: bought (Abnova); monomeric; also called hNav1.2 derived monomeric GST-tagged loopA3 peptide; Abnova H00006326-Q01; not shown: GST tag
T5 sequence (Q99250 273-362 limits assumed): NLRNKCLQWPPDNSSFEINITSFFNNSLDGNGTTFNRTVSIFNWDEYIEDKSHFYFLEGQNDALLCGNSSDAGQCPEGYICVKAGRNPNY
Kind of experiment: binding ELISA on coated GST-tagged hNav1.2 loop A3 peptide, OD620.
Description: as §1

The target of experiment [6] is human Nav1.7 (full length) (human) (UniProt Q15858). The experiment in a line: cell-based or functional assay.
In experiment [7] the target is T6, GST-tagged hNav1.7-loopA3 (human, UniProt Q15858 269-339).
T6 construct: monomeric GST-tagged peptide; also called hNav1.7-loopA3-GST; Nav1.7-loopA3-GST; not shown: GST tag
Kind of experiment: binding ELISA on coated GST-tagged hNav1.7 loop A3 peptide, OD620.
Description: as §1

For experiment [8], the target named is T1, hNav1.7-loopA3-llama Fc fusion. The experiment in a line: binding ELISA of mAb 8A7 on coated loop A3-llama Fc chimeras, OD450.
Experiment [9] has as its target T7, Mouse A3 mut1 (mouse-human chimera, UniProt Q62205 269-319).
T7 construct: also called mouse A3 mut1 loop; not shown: linker and llama Fc of the A3-llamaFc construct
The experiment is described as above.

Experiment [10] addresses T8, mouse A3-llamaFc (mouse, UniProt Q62205 269-319).
T8 construct: also called wild-type mouse A3 loop; not shown: linker and llama Fc of the A3-llamaFc construct
T8 sequence: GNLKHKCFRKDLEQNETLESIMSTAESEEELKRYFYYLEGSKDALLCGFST
The description is as above.

We go through two molecules from US20160207996A1 (ARGEN X N V, published 2016).

B1: 8B6 (antibody, human IgG1, V domains shown)
VH: EVQLQESGPGLVKPSQTLSLTCTVSGGSISTSGTGWSWIRQPPGKGLEWMGIIGYDGGTYYNPSLKSRTSISRDTSKNQFSLQLTSVTPEDTAVYYCARGLGPWGQGIQVTVSS
VL: DIQMTQSPSSLSASLGDRVTITCQASQGISKYLAWYQQKPGQAPKLLIYSASRLETGVPSRFSGSGSGTTFTLVISGLEAEDAGSYYCQQYYRAPATFGQGTKVELK
In turn, B1 yielded a 50% effective concentration (EC50) in [1] of 0.37 nM. In addition, the entries for the concentration giving a half-maximal response (EC50 (read off the curve)) in experiment [2] and in experiment [7] were roughly 0.6 nM and roughly 0.5 nM, respectively. In addition, the binding result in [3] is reported as “no binding (tested: about 66 nM)”; in experiment [4] it was “no binding (tested: about 66 ng/ml (axis as labelled))”; in [5] it was “no binding (tested: about 130 nM)”. Besides, the % inhibition of inward current following P02 voltage protocol, 10 µg/ml in [6] was found to be 30.2%. The % inhibition of inward current following P02 voltage protocol, 25 µg/ml in experiment [6] is 58.4%. In [6], the % inhibition of inward current following P02 voltage protocol, 100 µg/ml is 72.2%.

B2: 8A7 (antibody, human IgG1, V domains shown)
VH: EVQVQESGPGLVTPSQTLSLTCTVSGGSIKNNYYYWNWIRQPPGKGLEWMGAIAYSGSTYYSPSLQSRTSISRDTSKNQFTLQLSSVTPEDTAVYYCARVPSVFGLPYGGMNYWGKGTLVTVSS
VL: SYELTQSPSVTVALRQTAKITCGGSRIGSKSVQWYQQKPGQVPVLVIYADNRRPSRIPERFSGSNSGNTATLIISGAQAEDEADYYCQVWDSSAAVFGGGTHLTVLG
notes: also called mAb 8A7
For B2, the EC50 in [1] was 0.23 nM. Also, in experiment [8], the “EC50 (read off the curve)” value was roughly 0.08 nM. The binding result in [9] is recorded as “no binding (tested: about 33 nM)”; in [10] it was “no binding (tested: about 33 nM)”; in experiment [4], “no binding (tested: about 66 ng/ml (axis as labelled))”; in [5] it was “no binding (tested: about 130 nM)”. Further, the % inhibition of inward current following P02 voltage protocol, 10 µg/ml in experiment [6] stood at 4%. Further, the % inhibition of inward current following P02 voltage protocol, 25 µg/ml in experiment [6] was found to be 33.3%. This molecule also displayed a % inhibition of inward current following P02 voltage protocol, 100 µg/ml in experiment [6] of 47.6%.
